The values that follow come from paper PMC8202325.

Values joined by “and” are separate entries in the source; they are usually repeats but may differ in a detail not shown here. Identical values can stand only once.

The assay has as its target His::PfPLSCR (recombinant full-length Plasmodium falciparum phospholipid scramblase with an N-terminal hexa-histidine affinity tag) (P. falciparum). Description: native gel or EMSA; blue native PAGE (NativePAGE Novex Bis-Tris, G250 additive) of eluted fractions of the main SEC peak; protein purified in 250 mM NaCl, 0.5 mM CaCl2, 1 mM TCEP, 0.1 % FC-12, 25 mM HEPES pH 7.5. A general note: In EMSA bound probe runs differently from free probe, usually more slowly.

Usually stoichiometry N stands for the number of molecules, sites or subunits per partner or assembly. With “His::PfPLSCR (recombinant full-length Plasmodium falciparum phospholipid scramblase with an N-terminal hexa-histidine affinity tag) (natural protein)”, the stoichiometry N is 2 and 4.
